Assay results reported in paper PMC9340783, “Development of a fully human anti‐GITR antibody with potent antitumor activity using H2L2 mice” (FEBS Open Bio, 2022).

T1: cynoGITR ECD hFc (Macaca fascicularis)
T1 construct: cynomolgus GITR, extracellular domain, Gln20-Glu155, NCBI XP_005545180.1; also called cynoGITR protein; cGITR; source: FreeStyle 293F, transiently transfected, purified by protein A
T1 chain: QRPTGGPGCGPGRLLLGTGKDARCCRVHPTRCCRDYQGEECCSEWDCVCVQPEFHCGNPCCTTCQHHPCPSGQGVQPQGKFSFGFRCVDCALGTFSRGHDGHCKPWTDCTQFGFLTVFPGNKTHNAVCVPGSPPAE

T2: cynoGITR on 293F‐cynoGITR cells (Macaca fascicularis)
T2 construct: also called 293F‐cGITR
T2 chain: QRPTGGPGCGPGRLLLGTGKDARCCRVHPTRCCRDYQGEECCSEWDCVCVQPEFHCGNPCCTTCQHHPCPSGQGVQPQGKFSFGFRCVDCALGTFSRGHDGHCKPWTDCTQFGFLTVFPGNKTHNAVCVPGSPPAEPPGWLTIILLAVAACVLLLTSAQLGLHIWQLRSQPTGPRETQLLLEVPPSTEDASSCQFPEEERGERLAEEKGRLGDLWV


Assays:
[1] = biological target: T1, cynoGITR ECD hFc; assay: ELISA; indirect ELISA; antigen hFc fusion protein coated on 96-well plates (1 μg·mL^−1 overnight at 4 °C in Fig. 3B), antibody added, detected with anti-rat IgG/hIgG-peroxidase antibody; conditions: both partners purified
[2] = biological target: T3, hGITR ECD hFc (Homo sapiens (Human)., UniProt Q9Y5U5, Thr45Ala); assay: as above; conditions: both partners purified
T3 construct: human GITR (glucocorticoid-induced TNF receptor-related), extracellular domain, Gln26-Glu161 with Thr45Ala, UniProt Q9Y5U5.1; also called human GITR protein; source: FreeStyle 293F, transiently transfected, purified by protein A

[3] = biological target: T4, human GITR on 293F‐hGITR cells (Homo sapiens (Human)., UniProt Q9Y5U5-1); assay: cell-based or functional assay
[4] = biological target: T4, human GITR on 293F‐hGITR cells; assay: flow cytometry on cells; 293F‐hGITR or 293F‐cynoGITR cells incubated with antibodies at 4 °C for 1 h, fluorescent anti-rat/human secondary antibody; EC50 of MFI curve; conditions: one partner purified
[5] = biological target: T2, cynoGITR on 293F‐cynoGITR cells; assay: as above; conditions: one partner purified
[6] = biological target: T1, cynoGITR ECD hFc; assay: ELISA; indirect ELISA; antigen hFc fusion protein coated on 96-well plates (1 μg·mL^−1 overnight at 4 °C in Fig. 3B), antibody added, detected with anti-rat IgG/hIgG-peroxidase antibody; conditions: both partners purified
[7] = biological target: T3, hGITR ECD hFc; assay: as above; conditions: both partners purified; remark: listed apart in the source
[8] = biological target: T3, hGITR ECD hFc; assay: SPR; Biacore T200; hGITR ECD hFc immobilised on a Series S CM5 chip; antibody 0, 3.125, 6.25, 12.5, 25 and 50 nM; association 180 s, dissociation 600 s; conditions: both partners purified
[9] = biological target: T5, 4‐1BB ECD hFc (Homo sapiens (Human)., UniProt Q07011); assay: ELISA; indirect ELISA; antigen hFc fusion protein coated on 96-well plates (1 μg·mL^−1 overnight at 4 °C in Fig. 3B), antibody added, detected with anti-rat IgG/hIgG-peroxidase antibody; conditions: both partners purified
T5 construct: 4-1BB, extracellular domain; called a paralogue of human GITR; The legend's word 'human' stands before OX40 only; human is likely

[10] = biological target: T6, human OX40 ECD hFc (Homo sapiens (Human)., UniProt P43489); assay: as above; conditions: both partners purified
T6 construct: human OX40, extracellular domain
T6 sequence (P43489 29-214): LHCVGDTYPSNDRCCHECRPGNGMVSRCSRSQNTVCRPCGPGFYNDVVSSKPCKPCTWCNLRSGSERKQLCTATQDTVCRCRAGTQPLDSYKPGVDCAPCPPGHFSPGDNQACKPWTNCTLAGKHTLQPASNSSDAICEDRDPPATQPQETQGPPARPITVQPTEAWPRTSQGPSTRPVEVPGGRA

T4 sequence (Q9Y5U5 26-241): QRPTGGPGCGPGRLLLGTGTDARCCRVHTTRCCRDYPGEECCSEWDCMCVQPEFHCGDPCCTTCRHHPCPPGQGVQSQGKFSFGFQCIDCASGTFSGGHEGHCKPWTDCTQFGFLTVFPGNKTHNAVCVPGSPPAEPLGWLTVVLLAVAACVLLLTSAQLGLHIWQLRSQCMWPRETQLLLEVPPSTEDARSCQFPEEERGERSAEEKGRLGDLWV
T5 sequence (Q07011 24-186): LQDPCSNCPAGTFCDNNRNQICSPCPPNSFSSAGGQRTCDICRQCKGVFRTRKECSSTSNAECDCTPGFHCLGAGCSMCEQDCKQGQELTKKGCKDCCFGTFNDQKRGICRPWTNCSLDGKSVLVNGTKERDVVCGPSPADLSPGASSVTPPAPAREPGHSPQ

| EC50 [1] | EC50 [2] | NF‐ĸB luciferase reporter assay, Crosslinking, EC50 [3] | NF‐ĸB luciferase reporter assay, Crosslinking, Top ratio [3] | NF‐ĸB luciferase reporter assay, No crosslinking, EC50 [3] | NF‐ĸB luciferase reporter assay, No crosslinking, Top ratio [3] | EC50 [4] | EC50 [5] | EC50 [6] | EC50 [7] | Kd [8] | binding result [9] | binding result [10] | Binder |
| --- | --- | --- | --- | --- | --- | --- | --- | --- | --- | --- | --- | --- | --- |
| 0.09 nM | 0.088 nM | 8.86 nM | 14 fold | 0.787 nM | 11 fold | 0.184 nM | 0.235 nM | 0.0637 nM | 0.0709 nM | 0.135 nM | – | – | Tab9H6v3 (antibody, V domains shown, heavy chain variable region of clone 9H6v3 (AMGEN INC.); light chain variable region of clone 9H6v3 (AMGEN INC.)) VH: QVQLVESGGGVVQPGRSLRLSCVASGFTFSSYGMHWIRQAPGKGLEWVAVIWYEGSNKYYAESVKGRFTISRDNSKNTLYLQMNSLRAEDTAVYYCARGGRLGKDYYSGMDVWGQGTTVTVSS VL: DIQMTQSPSSLSASVGDRVTITCRASQGIRNDLGWYQQKPGKAPKRLIYATSSLQSGVPSRFSGSGSGTEFTLTISSLQPEDFATYYCLQHNTYPWTFGQGTKVEIK |
| 0.111 nM | 0.101 nM | 6.78 nM | 12 fold | 0.262 nM | 7 fold | 0.164 nM | 0.268 nM | – | – | 0.537 nM | no binding | no binding | hab070e1 (antibody, V domains shown, as the VH of m14 (3503‐hab070‐VH); 3503‐hab070‐Vk(C2Y); the substitution is against the VL of m14 (Cys in FR3 of VL); position not given; Whole antibody, human IgG1 heavy chain constant region, human kappa light chain constant region; also called hab70e1; source: FreeStyle 293F, transiently co-transfected, purified from culture supernatant) VH: QVQLVESGGGVVQPGRSLRLSCAASGFTFSSYGMHWVRQAPGKGLEWVAVIWYETSNKFYVDSVKGRFTISRDNSKNTLYLQMNSLRAEDTAVYYCARYGASSGWYWYFDLWGRGTLVTVSS VL: DIQLTQSPSFLSASVGDRVTITCRASQGISSFLAWYQQKPGKAPKLLIYAASTLQSGVPSRFSGSGSGTEFTLTISSLQPEDFATYYCQQLNSYPFTFGQGTKLEIK |
| 0.089 nM | 0.093 nM | 7.69 nM | 13 fold | 0.275 nM | 8 fold | 0.206 nM | 0.29 nM | – | – | 0.384 nM | no binding | no binding | hab019e2 (antibody, V domains shown, 3503‐hab019‐VH(EG + NLA); positions not given; as the VL of m12 (3503‐hab019‐Vk); Whole antibody, human IgG1 heavy chain constant region, human kappa light chain constant region; also called hab19e2; source: FreeStyle 293F, transiently co-transfected, purified from culture supernatant) VH: QVQLVESGGGVVQPGRSLRLSCAASGFTFSSYGMHWVRQAPGKGLEWVAVIWYAGSRKFYADSVEGRFTISRDNSKNTLYLQMNSLRAEDTAVYYCARGGSLEGGFFYYGMDVWGQGTTVTVSS VL: not shown |
